Measurements reported in patent publication US20090274696A1, “METHODS FOR TREATING INFLAMMATION” (WYETH, priority 2008, published 2009).

Experiments:
[1] = tested on: tracheal smooth muscle (TSM) of mouse tracheal rings; test: ISO-induced relaxation of CCh-contracted tracheal rings; type: cell-based; conditions: in either presence or absence of rFIZZ1
Method: (§1) Experimental animals were sacrificed by CO2 asphyxiation. Tracheas were surgically excised and cleaned of adherent connective tissue. Each trachea was sectioned into rings 3-4 mm in length and cultured in DMEM containing 1.0 M HEPES, 1.0 M NaOH, 5% of heat-inactivated FBS (Hy-Clone, Logan, Utah), 0.2M glutamine, 1.0 M CaCl2, 2.5 μg/ml fungizone, 5 μg/mL insulin, 100 U/mL penicillin and 100 μg/mL streptomycin) (DMEM-5%) for 24 hours. For in vitro experiments, the tracheal rings were cultured in DMEM in the absence and presence of either 10 or 100 nM recombinant FIZZ1 (Leinco Technologies, USA) for 24 hours.
(§2) Trachea were supported longitudinally by a plexiglas rod with a stainless steel pin into the base of a double-jacketed, glass organ bath filled with 10 mL of Krebs-Henseleit (K-H) solution (37° C.) of the following composition: 118 mM NaCl; 4.7 mM KCl; 1.2 mM KH2PO4; 11.1 mM Dextrose; 1.2 mM MgSO4; 2.8 mM CaCl2; and 25 mM NaHCO3. The solution was maintained at a pH of 7.40-7.45 and continuously gassed with a mixture of 5% CO2 and […] for the duration of each experiment. […] Initial tensions of TSM were set at approximately 0.5 g and maintained for 1 hour. Agonists were given after a steady state of tension had been reached.
[CCh]-response curves at the doses ranging from 3×10^−8 to 10^−5 M were completed in tracheal rings in absence and presence of either FIZZ1 or LPS (0.1 ng/mL). Concentrations of agonist were increased only when force responses to the previous concentration had stabilized. To examine TSM relaxant responses to isoprenaline (ISO), tracheal rings were first contracted by an addition of 1.0 μM CCh (Sigma, USA). Once the contraction had stabilized, ISO (Sigma, USA) was introduced into each bath at increasing concentrations (3×10^−8-10^−5 M). […]
(§3) At the end of each force measurement experiment, tracheas were blotted on a gauze pad and weighted. Results were calculated as milligram of tension per milligram of TSM weight (mg/mg) and expressed as an individual percentage (%) of 10 μM CCh- or 200 μM papaverine-induced tension response in PBS-treated trachea. […]

[2] = tested on: tracheal smooth muscle (TSM) of mouse tracheal rings; test: CCh-evoked force generation in cultured tracheal rings; type: cell-based; conditions: FIG. 4B, 100 nM heat-inactivated or native rFIZZ1, 0.1 ng/mL LPS, PBS 100±4.82, n=6
Method: as §1, §2
[CCh]-response curves at the doses ranging from 3×10^−8 to 10^−5 M were completed in tracheal rings in absence and presence of either FIZZ1 or LPS (0.1 ng/mL). Concentrations of agonist were increased only when force responses to the previous concentration had stabilized. To examine TSM relaxant responses to isoprenaline (ISO), tracheal rings were first contracted by an addition of 1.0 μM CCh (Sigma, USA). Once the contraction had stabilized, ISO (Sigma, USA) was introduced into each bath at increasing concentrations (3×10^−8-10^−5 M). […] In an additional experiment, the effect of FIZZ1 protein on the CCh-mediated force response was verified using 100 nM heat-inactivated FIZZ1 (natural and recombinant FIZZ1 solution heated at 70° C. for 60 min). Their dose-response curves were obtained as above. Fresh drug solutions such as CCh and ISO were made up on the day of the experiment. Doses of the above agents refer to the final bath concentration.
(§4) At the end of each force measurement experiment, tracheas were blotted on a gauze pad and weighted. Results were calculated as milligram of tension per milligram of TSM weight (mg/mg) and expressed as an individual percentage (%) of 10 μM CCh- or 200 μM papaverine-induced tension response in PBS-treated trachea. For the control group, CCh (papaverine)-mediated responses were normalized to the mean value of the maximal responses.

[3] = tested on: TSM of fresh tracheal rings; test: Force response of fresh tracheas from intranasally challenged mice; type: in vivo, mouse; conditions: intranasal once a day×5 days, 100 nM rFIZZ1 or 0.1 ng/ml LPS; 24 hours after last treatment; PBS 100.00±14.63; N=5
Method: (§5) For some experiments, ex vivo TSM tensions of fresh tracheal rings and BAL cell counts were measured at 24 hours after the last treatment of mice receiving an intranasal dose of either PBS, 0.1 ng/m: LPS or 100 nM rFIZZ1 (once a day×5 days).
as §2, §4

BAL cells [4] = test: Counts of BAL cells in intranasally challenged mice; type: in vivo, mouse; conditions: intranasal once a day×5 days, 100 nM rFIZZ1 or 0.1 ng/ml LPS; vs PBS-treated mice
Method: as §5
(§6) PBS- and OA-treated mice were sacrificed and their airways lavaged once with 1.0 mL of PBS via tracheal cannulation. An equal volume of BAL from each mouse was collected and centrifuged (1200 rpm, 5 min). Total BAL cells were counted using a hemocytometer. BAL cells ([…]) collected from each sample were applied to a glass slide using a cytospin (800 rpm, 8 min) and then the slide was stained with Hema 3 Stain Set (Fisher Scientific) for the differential count of cells. The relative proportion of different cells counted from 300 cells/slide was factored to the number of total BAL cells collected in each group.

[5] = tested on: airway epithelium of cultured trachea; test: Histological examination of tracheal rings and airway epithelium; type: cell-based, mouse; conditions: cultured overnight with FIZZ1 100 nM or LPS 0.1 ng/mL
Method: Histological examination of the structure of the airway and the status of the airway epithelial layer was performed in whole/sectional fresh trachea and as well as trachea cultured overnight with and without 100 nM FIZZ1. To understand the role of airway epithelium in regulating contractility of TSM, we measured the contractile response of tracheal rings after the epithelium was mechanically removed. Briefly, airway epithelial cells were removed by gently rubbing the intraluminal surface with polyethylene tubing (Becton Dickinson & Company, MD USA) connected to a Precision Glide needle (30G1/2) followed by perfusion with 1.0 ml air bubbles and then 1.0 ml K-H solution (re). All of the experimental tracheas were stained with H & E solution (CAT hematoxylin, Edgar Degas Eosin Working Solution, Biocare Medical, Concord, Calif.) and photographed under a light microscope at ×4.0 and ×20 magnification. Tracheal morphometric analysis was performed using a computer-based image analysis system consisting of a Nikon Eclipse E800 microscope (Melville, N.Y. USA) with a SPOT RT Slider camera (Diagnostic Instruments, Inc., Sterling Heights, Mich. USA).

[6] = tested on: mouse tracheal epithelium cells (MTEC); test: Nitrite in MTEC supernatants, Griess reaction; type: cell-based; conditions: PBS, 0.1 ng/mL LPS or 100 nM rFIZZ1; any measured time point; N=3
Method: MTEC culture was performed by following the protocol of You et al. (“Growth and differentiation of mouse tracheal epithelial cells: selection of a proliferative population,” Am J Physiol Lung Cell Mol Physiol, 2002, 283:L 1315-1321) with minor modification. Briefly, tracheas were incubated in 1.5 mg/mL pronase (Roche Molecular Biochemicals) for 18 h at 4° C. Cells were treated with 0.5 mg/mL crude pancreatic DNase I (Sigma-Aldrich) on ice for 5 min. After incubation in tissue culture plates for 3-4 h in 5% CO2 at 37° C., nonadherent cells were incubated in a plate coated with type I rat tail collagen (BD Biosciences) in modified BEBM (Lonza, Md. USA) containing 10 μg/ml insulin, 5 μg/ml transferrin, 25 ng/ml epidermal growth factor, 5 μg/ml epinephrine and 30 μg/ml bovine pituitary extract, 0.5 nM Hydrocortisone, 25 ng/ml hEGF, 15 nM Triiodothyronine, 0.25 μg/ml Gentamicin/amphotericin-B and 0.01 μM retinoic acid in 5% CO2 at 37° C. […]
Nitric oxide (NO) was examined by measuring an end product, nitrite, using the Griess reaction (Xu et al., “Arginase and autoimmune inflammation in the central nervous system,” Immunology, 2003; 110:141-148). […] Absorbance was read at 540 nm in an automated microplate reader. […]

TSM of tracheal rings = test: TSM contractile response to CCh in OA-treated mouse model; type: in vivo; conditions: PBS/PBS 100±6.77, n=6
Method: (§7) Animals were divided into three groups including phosphate buffered saline (PBS)-sensitized and -challenged (PBS/PBS), OA-sensitized and PBS-challenged (OA/PBS), and OA-sensitized and -challenged mice (OA/OA). Mice were intraperitoneally injected with an equivalent volume (100 μL) of PBS or OA (20 μg) with 2.25 mg Al(OH)3 in PBS on day 0 and 14. From day 25 to 34, mice were challenged with an aerosol of PBS or OA (5% in PBS) for 30 min once a day for 10 consecutive days.
Experimental animals were sacrificed by CO2 asphyxiation. Tracheas were surgically excised and cleaned of adherent connective tissue. Each trachea was sectioned into rings 3-4 mm in length and cultured in DMEM containing 1.0 M HEPES, 1.0 M NaOH, 5% of heat-inactivated FBS (Hy-Clone, Logan, Utah), 0.2M glutamine, 1.0 M CaCl2, 2.5 μg/ml fungizone, 5 μg/mL insulin, 100 U/mL penicillin and 100 μg/mL streptomycin) (DMEM-5%) for 24 hours. For in vitro experiments, the tracheal rings were cultured in DMEM in the absence and presence of either 10 or 100 nM recombinant FIZZ1 (Leinco Technologies, USA) for 24 hours. […]
as §3

BAL cells [7] = test: BAL cellular composition in OA-treated mouse model; type: in vivo; conditions: OA/OA-treated mice vs PBS/PBS and OA/PBS; n=6
Method: as §7, §6

FIZZ1 mRNA = FIZZ1 mRNA expression in trachea by transcriptional profiling; type: in vivo, mouse; conditions: OA/OA-treated mice over PBS/PBS- or OA/PBS-treated mice
Method: as §7
Three (3) groups of mice were analyzed using PBS/PBS, OA/PBS and OA/OA, with 18 animals per group. Tracheal rings from 6 animals per group were combined as replicates, to produce total RNA. […] RNA was quantified using the Nanoprop ND-1000 spectrophotometer. […] The Ovation kit utilizes the Ribo-SPIA process to linearly amplify and label, limiting amounts mRNA in a three-step process resulting in microgram quantities (Kum et al, “Novel Isothermal, Linear Nucleic Acid Amplification Systems for Highly Multiplexed Applications,” Clinical Chemistry, 2005; 51:1973-1981). Approximately 1.5 μg of purified and fragmented biotinylated cRNA, together with controls for quantitating the amount of each transcript, was hybridized to the mouse gene chip array, MOE 430—2.0 (Affymetrix) for 16-18 hours. […] Resulting signals were normalized and quantified using Gene Logic's MAS 5.0 software.

FIZZ1 protein = FIZZ1 protein in BAL by Western blot; type: in vivo, mouse; conditions: OA/OA-treated mice
Method: as §7
Protein expression levels of were examined using Western blot analysis. Briefly, aliquots (100 μg/well) of BAL supernatant and tracheal lysate were loaded onto 4-20% SDS-PAGE gel in an equal volume. Size-fractionated proteins were transferred to nitrocellulose membrane and then blocked with 5% nonfat dried milk in TBS at room temperature for 60 min. […] Immunoreactive bands were detected by chemiluminesence. Protein expression levels were evaluated in relative to expression of β-actin in the same tissue. Quantification of Western blots for phosphorylated signaling proteins was performed using ImageJ and relative band intensity was calculated as % of the intensity of the β-actin protein band.

## CC(C)NCC(O)c1ccc(O)c(O)c1 (centres unmarked) [ISO, isoprenaline, reference compound]
[1]
  TSM relaxation, level relative to the relaxation by papaverine: 50%

## lipopolysaccharide [LPS, reference compound]
[2]
  maximal responses (%) of the tracheal rings, CCh-evoked: 96.40±4.31%
[3]
  Maximal tensions (%) of TSM, CCh-evoked, fresh trachea: 108.28±5.44%
BAL cells [4]
  number of BAL cells: obvious increase
[5]
  smooth muscle layers, histology: clear and histologically intact
[6]
  changes in nitrite concentration in MTEC supernatants: not obvious

B1: ovalbumin (protein, UniProt P01012 2-386, looked up)
Ovalbumin: GSIGAASMEFCFDVFKELKVHHANENIFYCPIAIMSALAMVYLGAKDSTRTQINKVVRFDKLPGFGDSIEAQCGTSVNVHSSLRDILNQITKPNDVYSFSLASRLYAEERYPILPEYLQCVKELYRGGLEPINFQTAADQARELINSWVESQTNGIIRNVLQPSSVDSQTAMVLVNAIVFKGLWEKAFKDEDTQAMPFRVTEQESKPVQMMYQIGLFRVASMASEKMKILELPFASGTMSMLVLLPDEVSGLEQLESIINFEKLTEWTSSNVMEERKIKVYLPRMKMEEKYNLTSVLMAMGITDVFSSSANLSGISSAESLKISQAVHAAHAEINEAGREVVGSAEAGVDAASVSEEFRADHPFLFCIKHIATNAVLFFGRCVSP
notes: allergen used to sensitize and challenge mice (OA/OA, OA/PBS groups)
TSM of tracheal rings; OA/OA: OA-sensitized and -challenged mice
  contractile forces (%) of TSM to CCh: 127.75±3.54%
TSM of tracheal rings; OA/PBS: OA-sensitized and PBS-challenged mice
  contractile forces (%) of TSM to CCh: 105.21±2.71%
BAL cells [7]
  number of lymphocytes and eosinophils in the BAL: markedly increased
  number of total BAL cells: large increase
FIZZ1 mRNA
  Fc in FIZZ1 mRNA expression in trachea: 1000 fold
FIZZ1 protein
  FIZZ1 protein in the BAL: easily detected

B2: heat inactivated rFIZZ1: FIZZ1 solution heated at 70° C. for 60 min (protein, UniProt Q9EP95 24-111, looked up)
Resistin-like alpha: DETIEIIVENKVKELLANPANYPSTVTKTLSCTSVKTMNRWASCPAGMTATGCACGFACGSWEIQSGDTCNCLCLLVDWTTARCCQLS
modifications: heat inactivated
notes: FIZZ1 solution heated at 70° C. for 60 min
[2]
  maximal responses (%) of the tracheal rings, CCh-evoked: 100.00±4.77%
[2]; listed as Heat-inactivated FIZZ1
  maximal responses (%) of the tracheal rings, CCh-evoked: no observable effect
